{"source": "patent US20130344582", "system": "collagen IV (BD Biosciences)", "data": [{"substance": "activated MMP-9 (Chemicon)", "values": [{"measurement": "alignment of liquid crystal on the surface (zymography; enzymatic digestion of the protein substrate)", "result": "after 30 minutes incubation with 1 pg MMP-9, the collagen IV has been digested and the liquid crystals align on the exposed SAM"}]}]}
